Experimental data from article PMC11732086 (2024).

Key:
[1] = target: T1, MBP-OsTORKD (rice, UniProt Q0DJS1 1896-2465); assay: ITC
T1 chain: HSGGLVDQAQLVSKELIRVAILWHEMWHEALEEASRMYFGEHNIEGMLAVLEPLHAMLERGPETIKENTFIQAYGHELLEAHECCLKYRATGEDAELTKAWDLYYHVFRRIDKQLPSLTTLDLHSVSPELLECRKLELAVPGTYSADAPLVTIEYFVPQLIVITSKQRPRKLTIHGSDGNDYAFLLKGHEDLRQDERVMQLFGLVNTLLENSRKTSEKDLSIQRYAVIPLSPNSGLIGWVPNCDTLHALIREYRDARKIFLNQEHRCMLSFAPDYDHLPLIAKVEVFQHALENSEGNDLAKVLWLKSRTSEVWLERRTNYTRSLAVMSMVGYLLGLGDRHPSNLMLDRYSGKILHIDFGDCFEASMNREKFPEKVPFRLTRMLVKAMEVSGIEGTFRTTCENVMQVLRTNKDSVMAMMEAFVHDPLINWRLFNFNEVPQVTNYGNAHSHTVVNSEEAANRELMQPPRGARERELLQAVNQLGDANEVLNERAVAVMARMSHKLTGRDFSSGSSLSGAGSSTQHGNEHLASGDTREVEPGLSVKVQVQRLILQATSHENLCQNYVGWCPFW

[2] = target: T1, MBP-OsTORKD; assay: ITC; His-OsFKBP12 in the syringe (10 mM) titrated into MBP-OsNIN8, MBP-OsNIN8m or MBP-OsTORKD in the cell (0.1 mM); 25°C; 20 injections of 2.5 μL, interval 200 s; proteins dialysed in 50 mM potassium phosphate pH 6.4

B1: His-OsFKBP12 (natural protein)
chain: MGFEKTILKAGTGPKPVKGQKVTVHCTGFGKDNDLAKKFWSTKDAGQEPFSFNIGQGSVIKGWDEGVMTMQVGEVARIQCTPDYAYGASGFPAWGIRPNSVLVFEIEVLSAQ
- Kd [1]: 81.8 µM
- stoichiometry N (OsFKBP12 per OsTORKD) [2]: 6
